# From the supplement of paper PMC10724198
# ± gives the standard deviation of the averaged measurements.
# System: Saccharomyces cerevisiae
# Test: protein stability index of tFT-peptide fusion (C-terminal peptide) (PSI (0-1 scale)); higher = more stable (slower turnover)
# Settings: genetic background: wild type; temperature: 30 C
# Procedure: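 MPS profiling in S. cerevisiae of the tFT-X12 degron library: putative degron peptides plus stable controls, 12 aa, fused to the C-terminus of a sfGFP-mCherry timer. Cells are FACS-sorted into 8 mCherry/sfGFP bins and deep-sequenced. PSI runs from 0 (unstable) to 1 (stable). Backgrounds are wild type, das1Δ and doa10Δ at 30 °C, and wild type, das1Δ, cdc34-1 and cdc53-1 at 37 °C; 2-3 technical replicates each.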
# 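Note: PSI is a weighted mean of sequencing reads over stability bins, variants kept only with over 10 reads, mCherry proximal and sfGFP distal, peptide attached via GGGS linker.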
row,Sequence,protein stability index
1,NCVDRFKGQKRM,0.491 ± 0.023
2,NFFIQFHNLLFP,0.6712 ± 0.0036
3,NGLVCVFILSWY,0.238 ± 0.033
4,NLFVFLSYLFNV,0.34 ± 0.014
5,NLVCLDPFLVFV,0.472 ± 0.025
6,NMVSMVVVIFGV,0.24 ± 0.02
7,NNQIQKKMYQTN,0.198 ± 0.05
8,NWAIEIRSVKIV,0.183 ± 0.021
9,NYCVFLSYLLFC,0.215 ± 0.033
10,NYFRPWLIFHKC,0.309 ± 0.023
11,PALPQPMNPAPP,0.66 ± 0.016
12,PALVVALLASVL,0.386 ± 0.029
13,PCLPLTPMWTLF,0.42 ± 0.022
14,PFFVLFSLAFLF,0.278 ± 0.017
15,PLATSLIGLFVV,0.298 ± 0.032
16,PLLLFFFPRLLF,0.382 ± 0.019
17,PLLPTPLTAPPP,0.671 ± 0.023
18,PLLSATLTRRLA,0.19 ± 0.03
19,PLTSPLLFPVFA,0.267 ± 0.017
20,PPPLPFPTPPPS,0.646 ± 0.032
21,PPSLPPLISFSP,0.6624 ± 0.0039
22,PPSRSPLPPLLH,0.686 ± 0.027
23,PPTPYPRFIFSF,0.372 ± 0.028
24,PPVPRLLPVLAP,0.385 ± 0.025
25,PRIVLFLRLHSN,0.118 ± 0.02
26,PRPETCHAVAVR,0.4 ± 0.029

row,Sequence,protein stability index
1,PRPLLSIYLRHA,0.315 ± 0.017
2,PRQPSKSNASNR,0.635 ± 0.0095
3,PSIALVRLDVIC,0.327 ± 0.031
4,PSPFHSFYLRLI,0.249 ± 0.014
5,PSPPPYAPPIPA,0.447 ± 0.021
6,PSSPTPPPSSSP,0.673 ± 0.011
7,PSSVKLRVPSLY,0.636 ± 0.015
8,PTPSRPPHPPLR,0.66 ± 0.0015
9,PVALYPVQAYLT,0.146 ± 0.017
10,PVFVLFFFSSLV,0.35 ± 0.013
11,PVLIFTWVIVCH,0.0533 ± 0.023
12,PVLPPPLLLCPC,0.15 ± 0.018
13,PWEYSSQLVLVI,0.177 ± 0.023
14,QCRLPRPPLSLP,0.692 ± 0.009
15,QPTGYFKLIIIK,0.323 ± 0.067
16,QPTPQSALAKHQ,0.337 ± 0.0054
17,RASLPSLFRSLL,0.807 ± 0.022
18,RAVLRFVMVWVL,0.244 ± 0.051
19,RCTLFVNPVCVH,0.241 ± 0.015
20,RGFIFFALWSFC,0.35 ± 0.016
21,RGFVVFCIPCFV,0.243 ± 0.03
22,RGKVVRGLLFCA,0.151 ± 0.0035
23,RGPAYATCHLLC,0.141 ± 0.022
24,RIAIRSAVICAS,0.138 ± 0.038
25,RIIKIRAISINL,0.468 ± 0.016
26,RILKLPGHVNDV,0.65 ± 0.027

row,Sequence,protein stability index
1,RIRLYWVLRRLG,0.0992 ± 0.031
2,RISGSIVVRKRS,0.45 ± 0.033
3,RLPRILVLVCLF,0.163 ± 0.022
4,RLPSSNVRYWVS,0.183 ± 0.012
5,RNDCAYHVLQIV,0.202 ± 0.035
6,RNTLLFKRILHI,0.108 ± 0.045
7,RPPSLVFLFLLT,0.395 ± 0.015
8,RRGGNIVWYCLV,0.148 ± 0.017
9,RRIILAGLFLIS,0.353 ± 0.014
10,RRMGLRLFLLWM,0.348 ± 0.032
11,RSAVECRVTNIR,0.658 ± 0.036
12,RSFSKRSFMFLC,0.172 ± 0.0087
13,RSNLSKSWHRIG,0.11 ± 0.029
14,RTMLSNRIKSFI,0.244 ± 0.021
15,RVRRETRLRQIA,0.147 ± 0.0031
16,RVVNRWGVCFLG,0.131 ± 0.0093
17,RVWTTVFIIRAT,0.229 ± 0.024
18,RYLHFASLLFAS,0.226 ± 0.035
19,SDVLVVWVFFCR,0.263 ± 0.037
20,SELLVHVVFWLA,0.176 ± 0.019
21,SFAVSSDYLFII,0.361 ± 0.023
22,SFCSFVFVTFVL,0.312 ± 0.02
23,SFFCFFLSFFYL,0.445 ± 0.013
24,SFFSQAIPILAA,0.15 ± 0.021
25,SFLCILIFPFFP,0.408 ± 0.028
26,SFSFRPCLLLFF,0.283 ± 0.033

# Same assay, conditions: genetic background: wild type; temperature: 37 C
row,Sequence,protein stability index
1,NCVDRFKGQKRM,0.6341 ± 0.0052
2,NFFIQFHNLLFP,0.774 ± 0.027
3,NGLVCVFILSWY,0.375 ± 0.0047
4,NLFVFLSYLFNV,0.484 ± 0.013
5,NLVCLDPFLVFV,0.5835 ± 0.003
6,NMVSMVVVIFGV,0.386 ± 0.016
7,NNQIQKKMYQTN,0.473 ± 0.051
8,NWAIEIRSVKIV,0.303 ± 0.015
9,NYCVFLSYLLFC,0.3961 ± 0.0034
10,NYFRPWLIFHKC,0.547 ± 0.0037
11,PALPQPMNPAPP,0.6734 ± 0.0059
12,PALVVALLASVL,0.504 ± 0.0057
13,PCLPLTPMWTLF,0.611 ± 0.018
14,PFFVLFSLAFLF,0.422 ± 0.015
15,PLATSLIGLFVV,0.4673 ± 0.0014
16,PLLLFFFPRLLF,0.559 ± 0.025
17,PLLPTPLTAPPP,0.6941 ± 0.0038
18,PLLSATLTRRLA,0.386 ± 0.0044
19,PLTSPLLFPVFA,0.381 ± 0.033
20,PPPLPFPTPPPS,0.6663 ± 0.0036
21,PPSLPPLISFSP,0.7407 ± 0.0059
22,PPSRSPLPPLLH,0.694 ± 0.031
23,PPTPYPRFIFSF,0.601 ± 0.0037
24,PPVPRLLPVLAP,0.506 ± 0.0077
25,PRIVLFLRLHSN,0.2184 ± 0.0019
26,PRPETCHAVAVR,0.58 ± 0.011

row,Sequence,protein stability index
1,PRPLLSIYLRHA,0.553 ± 0.022
2,PRQPSKSNASNR,0.701 ± 0.022
3,PSIALVRLDVIC,0.443 ± 0.0051
4,PSPFHSFYLRLI,0.483 ± 0.0017
5,PSPPPYAPPIPA,0.563 ± 0.02
6,PSSPTPPPSSSP,0.7306 ± 0.0015
7,PSSVKLRVPSLY,0.715 ± 0.033
8,PTPSRPPHPPLR,0.69 ± 0.0022
9,PVALYPVQAYLT,0.265 ± 0.094
10,PVFVLFFFSSLV,0.5151 ± 0.0018
11,PVLIFTWVIVCH,0.0899 ± 0.012
12,PVLPPPLLLCPC,0.0932 ± 0.032
13,PWEYSSQLVLVI,0.159 ± 0.021
14,QCRLPRPPLSLP,0.693 ± 0.0099
15,QPTGYFKLIIIK,0.4476 ± 0.0013
16,QPTPQSALAKHQ,0.544 ± 0.04
17,RASLPSLFRSLL,0.897 ± 0.011
18,RAVLRFVMVWVL,0.434 ± 0.022
19,RCTLFVNPVCVH,0.345 ± 0.017
20,RGFIFFALWSFC,0.498 ± 0.022
21,RGFVVFCIPCFV,0.401 ± 0.038
22,RGKVVRGLLFCA,0.318 ± 0.077
23,RGPAYATCHLLC,0.257 ± 0.015
24,RIAIRSAVICAS,0.154 ± 0.02
25,RIIKIRAISINL,0.609 ± 0.03
26,RILKLPGHVNDV,0.69 ± 0.019

row,Sequence,protein stability index
1,RIRLYWVLRRLG,0.129 ± 0.0085
2,RISGSIVVRKRS,0.6333 ± 0.0061
3,RLPRILVLVCLF,0.25 ± 0.0094
4,RLPSSNVRYWVS,0.394 ± 0.037
5,RNDCAYHVLQIV,0.381 ± 0.0042
6,RNTLLFKRILHI,0.154 ± 0.0032
7,RPPSLVFLFLLT,0.573 ± 0.023
8,RRGGNIVWYCLV,0.24 ± 0.0074
9,RRIILAGLFLIS,0.537 ± 0.0093
10,RRMGLRLFLLWM,0.539 ± 0.015
11,RSAVECRVTNIR,0.715 ± 0.024
12,RSFSKRSFMFLC,0.227 ± 0.0064
13,RSNLSKSWHRIG,0.212 ± 0.074
14,RTMLSNRIKSFI,0.519 ± 0.025
15,RVRRETRLRQIA,0.269 ± 0.0076
16,RVVNRWGVCFLG,0.199 ± 0.015
17,RVWTTVFIIRAT,0.424 ± 0.023
18,RYLHFASLLFAS,0.52 ± 0.016
19,SDVLVVWVFFCR,0.435 ± 0.0063
20,SELLVHVVFWLA,0.303 ± 0.011
21,SFAVSSDYLFII,0.582 ± 0.01
22,SFCSFVFVTFVL,0.52 ± 0.058
23,SFFCFFLSFFYL,0.539 ± 0.02
24,SFFSQAIPILAA,0.0837 ± 0.023
25,SFLCILIFPFFP,0.5623 ± 0.0044
26,SFSFRPCLLLFF,0.417 ± 0.021
